We go through 46 variants from the Human Domainome abundance scans (Beltran et al. 2025).

± gives the uncertainty stated by the source.

B1: Nucleosome-remodeling factor subunit BPTF, residues 2862 to 2918; numbered along this chain, Q12830 (parent)
chain: TKKDTKLYCICKTPYDESKFYIGCDRCQNWYHGRCVGILQSEAELIDEYVCPQCQST

The variants in this series derive from B1. The series is described as follows: abundance fitness (aPCA) (normalised: wild type 0, dead -1); higher = more abundant; growth selection in yeast, the domain comes from the species named. The following applies: Homo sapiens.
On to TKKDTKLYCICKTPYDESKFYCGCDRCQNWYHGRCVGILQSEAELIDEYVCPQCQST [I22C], for which the abundance fitness is -0.806 ± 0.16. With TKKDTKLYCICKTPYDESKFYAGCDRCQNWYHGRCVGILQSEAELIDEYVCPQCQST [I22A] the figure was -0.578 ± 0.1. Turning to TKKDTKLYCICKTPYDESKFYGGCDRCQNWYHGRCVGILQSEAELIDEYVCPQCQST [I22G], the abundance fitness is -0.649 ± 0.086. With TKKDTKLYCICKTPYDESKFYDGCDRCQNWYHGRCVGILQSEAELIDEYVCPQCQST [I22D] the figure was -0.819 ± 0.22. With TKKDTKLYCICKTPYDESKFYEGCDRCQNWYHGRCVGILQSEAELIDEYVCPQCQST [I22E] the figure was -0.953 ± 0.15; with TKKDTKLYCICKTPYDESKFYFGCDRCQNWYHGRCVGILQSEAELIDEYVCPQCQST [I22F], -0.609 ± 0.2. With TKKDTKLYCICKTPYDESKIYIGCDRCQNWYHGRCVGILQSEAELIDEYVCPQCQST [F20I] the figure was -0.244 ± 0.12; with TKKDTKLYCICKTPYDESKRYIGCDRCQNWYHGRCVGILQSEAELIDEYVCPQCQST [F20R], -0.149 ± 0.067. Consider TKKDTKLYCICKTPYDESKEYIGCDRCQNWYHGRCVGILQSEAELIDEYVCPQCQST [F20E], for which the abundance fitness is -0.002 ± 0.1. To TKKDTKLYCICKTPYDESKCYIGCDRCQNWYHGRCVGILQSEAELIDEYVCPQCQST [F20C] belongs -0.346 ± 0.11. To TKKDTKLYCICKTPYDESKWYIGCDRCQNWYHGRCVGILQSEAELIDEYVCPQCQST [F20W] belongs -0.083 ± 0.08; to TKKDTKLYCICKTPYDESKPYIGCDRCQNWYHGRCVGILQSEAELIDEYVCPQCQST [F20P], -0.001 ± 0.097; to TKKDTKLYCICKTPYDESKGYIGCDRCQNWYHGRCVGILQSEAELIDEYVCPQCQST [F20G], -0.226 ± 0.08.

On to TKKDTKLYCICKTPYDESKYYIGCDRCQNWYHGRCVGILQSEAELIDEYVCPQCQST [F20Y], for which the abundance fitness was -0.08 ± 0.12. TKKDTKLYCICKTPYDESKTYIGCDRCQNWYHGRCVGILQSEAELIDEYVCPQCQST [F20T]: the abundance fitness was -0.009 ± 0.093. For TKKDTKLYCICKTPYDESKQYIGCDRCQNWYHGRCVGILQSEAELIDEYVCPQCQST [F20Q], the abundance fitness is -0.104 ± 0.092. As for TKKDTKLYCICKTPYDESKDYIGCDRCQNWYHGRCVGILQSEAELIDEYVCPQCQST [F20D], the abundance fitness is -0.062 ± 0.13. To TKKDTKLYCICKTPYDESKNYIGCDRCQNWYHGRCVGILQSEAELIDEYVCPQCQST [F20N] belongs -0.044 ± 0.13; to TKKDTKLYCICKTPYDESKLYIGCDRCQNWYHGRCVGILQSEAELIDEYVCPQCQST [F20L], -0.193 ± 0.075. TKKDTKLYCICKTPYDESKAYIGCDRCQNWYHGRCVGILQSEAELIDEYVCPQCQST [F20A]: the abundance fitness was -0.161 ± 0.09.

With TKKDTKLYCICKTPYDESKKYIGCDRCQNWYHGRCVGILQSEAELIDEYVCPQCQST [F20K], the abundance fitness was -0.192 ± 0.099.

As for TKKDTKLYCICKTPYDESKMYIGCDRCQNWYHGRCVGILQSEAELIDEYVCPQCQST [F20M], the abundance fitness is -0.149 ± 0.087. To TKKDTKLYCICKTPYDESKSYIGCDRCQNWYHGRCVGILQSEAELIDEYVCPQCQST [F20S] belongs -0.11 ± 0.072; to TKKDTKLYCICKTPYDESKFLIGCDRCQNWYHGRCVGILQSEAELIDEYVCPQCQST [Y21L], -0.245 ± 0.088; to TKKDTKLYCICKTPYDESKFCIGCDRCQNWYHGRCVGILQSEAELIDEYVCPQCQST [Y21C], -0.369 ± 0.17.

With TKKDTKLYCICKTPYDESKFAIGCDRCQNWYHGRCVGILQSEAELIDEYVCPQCQST [Y21A], the abundance fitness amounted to 0.006 ± 0.12. For TKKDTKLYCICKTPYDESKFMIGCDRCQNWYHGRCVGILQSEAELIDEYVCPQCQST [Y21M], the abundance fitness turned out to be 0.118 ± 0.11. On to TKKDTKLYCICKTPYDESKFVIGCDRCQNWYHGRCVGILQSEAELIDEYVCPQCQST [Y21V], for which the abundance fitness was -0.19 ± 0.091. As to TKKDTKLYCICKTPYDESKFWIGCDRCQNWYHGRCVGILQSEAELIDEYVCPQCQST [Y21W], the abundance fitness is -0.08 ± 0.11. For TKKDTKLYCICKTPYDESKFQIGCDRCQNWYHGRCVGILQSEAELIDEYVCPQCQST [Y21Q], the abundance fitness was -0.359 ± 0.12.

As for TKKDTKLYCICKTPYDESKFEIGCDRCQNWYHGRCVGILQSEAELIDEYVCPQCQST [Y21E], the abundance fitness is -0.245 ± 0.14.

TKKDTKLYCICKTPYDESKFRIGCDRCQNWYHGRCVGILQSEAELIDEYVCPQCQST [Y21R]: the abundance fitness was -0.151 ± 0.084. Consider TKKDTKLYCICKTPYDESKFKIGCDRCQNWYHGRCVGILQSEAELIDEYVCPQCQST [Y21K], for which the abundance fitness is -0.196 ± 0.18. As for TKKDTKLYCICKTPYDESKFIIGCDRCQNWYHGRCVGILQSEAELIDEYVCPQCQST [Y21I], the abundance fitness is -0.237 ± 0.17. As for TKKDTKLYCICKTPYDESKFGIGCDRCQNWYHGRCVGILQSEAELIDEYVCPQCQST [Y21G], the abundance fitness is -0.395 ± 0.12. With TKKDTKLYCICKTPYDESKFPIGCDRCQNWYHGRCVGILQSEAELIDEYVCPQCQST [Y21P] the figure was -0.658 ± 0.14; with TKKDTKLYCICKTPYDESKFFIGCDRCQNWYHGRCVGILQSEAELIDEYVCPQCQST [Y21F], -0.161 ± 0.16; with TKKDTKLYCICKTPYDESKFTIGCDRCQNWYHGRCVGILQSEAELIDEYVCPQCQST [Y21T], -0.3 ± 0.13. With TKKDTKLYCICKTPYDESKFHIGCDRCQNWYHGRCVGILQSEAELIDEYVCPQCQST [Y21H] the figure was -0.188 ± 0.17. Turning to TKKDTKLYCICKTPYDESKFNIGCDRCQNWYHGRCVGILQSEAELIDEYVCPQCQST [Y21N], the abundance fitness is -0.134 ± 0.19. On to TKKDTKLYCICKTPYDVSKFYIGCDRCQNWYHGRCVGILQSEAELIDEYVCPQCQST [E17V], for which the abundance fitness is -0.289 ± 0.068.

In the case of TKKDTKLYCICKTPYDHSKFYIGCDRCQNWYHGRCVGILQSEAELIDEYVCPQCQST [E17H], the abundance fitness is -0.168 ± 0.14.

For the variant TKKDTKLYCICKTPYDISKFYIGCDRCQNWYHGRCVGILQSEAELIDEYVCPQCQST [E17I], the abundance fitness was -0.155 ± 0.1. As for TKKDTKLYCICKTPYDMSKFYIGCDRCQNWYHGRCVGILQSEAELIDEYVCPQCQST [E17M], the abundance fitness is -0.131 ± 0.1. Take TKKDTKLYCICKTPYDPSKFYIGCDRCQNWYHGRCVGILQSEAELIDEYVCPQCQST [E17P]: the abundance fitness was -0.153 ± 0.081. For TKKDTKLYCICKTPYDNSKFYIGCDRCQNWYHGRCVGILQSEAELIDEYVCPQCQST [E17N], the abundance fitness was -0.172 ± 0.11.
